Earlier results, collected in patent US9994615B2, “Self-regulated peptide hydrogel for insulin delivery” (Massachusetts Institute of Technology, priority 2012, dated 2018).

Columns and labels:
[1] = after subcutaneous injection

pKa | Compound | Time basal level of insulin is maintained [1]
 | insulin detemir | up to 20 hours
 | glargine | up to 24 hours
approximately 8.9 | OB(O)c1ccccc1 [phenylboronic acid] | 
